Measured values published in article PMC9482650, “Quantitative fragmentomics allow affinity mapping of interactomes” (Nature Communications, 2022).

T1: PTPN13_1, Q12923
T1 sequence (Q12923 1088-1188, limits assumed, looked up): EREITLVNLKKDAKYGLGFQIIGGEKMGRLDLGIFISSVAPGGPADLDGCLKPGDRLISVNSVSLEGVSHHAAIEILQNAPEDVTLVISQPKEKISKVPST

T2: APBA3_1, O96018
T2 sequence (O96018 389-490, limits assumed, looked up): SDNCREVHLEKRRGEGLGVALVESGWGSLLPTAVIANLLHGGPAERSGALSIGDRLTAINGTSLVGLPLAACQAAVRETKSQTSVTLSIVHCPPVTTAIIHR

T3: SHANK1, Q9Y566
T3 sequence (Q9Y566 658-767, limits assumed, looked up): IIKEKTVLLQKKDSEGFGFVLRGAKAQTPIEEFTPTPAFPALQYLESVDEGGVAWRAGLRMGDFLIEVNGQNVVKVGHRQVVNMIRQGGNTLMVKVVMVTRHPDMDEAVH

T4: MPDZ_12, O75970
T4 sequence (O75970 1857-1958, limits assumed, looked up): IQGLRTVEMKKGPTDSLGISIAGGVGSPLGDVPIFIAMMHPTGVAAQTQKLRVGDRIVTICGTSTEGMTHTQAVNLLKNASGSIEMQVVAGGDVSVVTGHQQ

T5: GRIP1_7, Q9Y3R0
T5 sequence (Q9Y3R0 999-1096, limits assumed, looked up): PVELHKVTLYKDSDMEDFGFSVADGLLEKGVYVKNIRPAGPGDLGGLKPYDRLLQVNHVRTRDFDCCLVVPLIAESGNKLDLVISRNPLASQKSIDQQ

T6: GRIP1_3, Q9Y3R0
T6 sequence (Q9Y3R0 247-346, limits assumed, looked up): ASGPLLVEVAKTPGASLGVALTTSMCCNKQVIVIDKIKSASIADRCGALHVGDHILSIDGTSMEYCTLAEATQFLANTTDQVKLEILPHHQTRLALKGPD

T7: DFNB31_3, Q9P202
T7 sequence (Q9P202 811-907, limits assumed, looked up): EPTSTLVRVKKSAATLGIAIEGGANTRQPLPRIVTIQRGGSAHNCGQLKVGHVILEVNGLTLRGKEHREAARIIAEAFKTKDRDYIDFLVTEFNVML

T8: DFNB31_1, Q9P202
T8 sequence (Q9P202 135-233, limits assumed, looked up): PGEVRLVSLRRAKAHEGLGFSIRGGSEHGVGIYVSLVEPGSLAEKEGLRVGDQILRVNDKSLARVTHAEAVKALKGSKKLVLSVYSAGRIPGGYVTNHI

T9: MPP6, Q9NZW5
T9 sequence (Q9NZW5 125-219, limits assumed, looked up): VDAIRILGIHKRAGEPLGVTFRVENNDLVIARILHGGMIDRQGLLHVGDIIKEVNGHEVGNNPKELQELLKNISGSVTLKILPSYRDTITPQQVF

T10: SYNJ2BP, P57105
T10 sequence (P57105 8-110, limits assumed, looked up): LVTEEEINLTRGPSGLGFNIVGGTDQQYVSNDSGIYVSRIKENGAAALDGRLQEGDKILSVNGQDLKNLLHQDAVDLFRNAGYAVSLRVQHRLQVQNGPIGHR

T11: APBA1_2, Q02410
T11 sequence (Q02410 742-832, limits assumed, looked up): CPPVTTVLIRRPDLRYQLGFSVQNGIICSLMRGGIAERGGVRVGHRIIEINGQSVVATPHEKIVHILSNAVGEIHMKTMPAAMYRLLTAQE

T12: PDZD7_3, Q9H5P4
T12 sequence (Q9H5P4 857-944, limits assumed, looked up): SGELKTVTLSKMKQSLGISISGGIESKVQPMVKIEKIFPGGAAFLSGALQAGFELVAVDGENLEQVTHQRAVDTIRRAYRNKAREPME


What follows are binders tested against PDZRN4_1, Q6ZMN7 (assay: holdup assay). Details: plain residues with an end cap or a label only (N-terminal biotin on a linker: ado-ado).
Parameters: key: below the threshold = too weak to quantify, mostly under pKd 3.1 to 4

Sequence of PDZRN4_1, Q6ZMN7 (Q6ZMN7 213-318): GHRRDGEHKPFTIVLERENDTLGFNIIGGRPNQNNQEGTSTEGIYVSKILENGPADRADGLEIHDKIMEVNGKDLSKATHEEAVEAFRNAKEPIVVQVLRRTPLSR

| Binder | pKd |
| --- | --- |
| KSRPENGTVC [TMEM178B, H3BS89] | below the threshold |

What follows are binders tested against DLG1_1, Q12959 (assay: holdup assay). Details: plain residues with an end cap or a label only (N-terminal biotin on a linker: ado-ado).
Parameters: key: below the threshold = too weak to quantify, mostly under pKd 3.1 to 4

| Binder | pKd |
| --- | --- |
| KSRPENGTVC [TMEM178B, H3BS89] | 3.71 |

These binders were tested against T1, PTPN13_1, Q12923 (assay: holdup assay). Details: plain residues with an end cap or a label only (N-terminal biotin on a linker: ado-ado).
Parameters: key: below the threshold = too weak to quantify, mostly under pKd 3.1 to 4

| Binder | pKd |
| --- | --- |
| KSRPENGTVC [TMEM178B, H3BS89] | 3.59 |

These binders were tested against AHNAK1, Q09666 (assay: holdup assay). Details: plain residues with an end cap or a label only (N-terminal biotin on a linker: ado-ado).
Parameters: key: below the threshold = too weak to quantify, mostly under pKd 3.1 to 4

Sequence of AHNAK1, Q09666 (Q09666 4-100): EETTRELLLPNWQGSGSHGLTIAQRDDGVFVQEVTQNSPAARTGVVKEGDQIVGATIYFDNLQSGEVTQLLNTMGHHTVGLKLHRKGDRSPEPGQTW

| Binder | pKd |
| --- | --- |
| KSRPENGTVC [TMEM178B, H3BS89] | below the threshold |

Each binder was assayed against T2, APBA3_1, O96018 (assay: holdup assay). Details: plain residues with an end cap or a label only (N-terminal biotin on a linker: ado-ado).
Parameters: key: below the threshold = too weak to quantify, mostly under pKd 3.1 to 4

| Binder | pKd |
| --- | --- |
| KSRPENGTVC [TMEM178B, H3BS89] | below the threshold |

These binders were tested against Inadl_8, Q8NI35 (assay: holdup assay). Details: plain residues with an end cap or a label only (N-terminal biotin on a linker: ado-ado).
Parameters: key: below the threshold = too weak to quantify, mostly under pKd 3.1 to 4

Sequence of Inadl_8, Q8NI35 (Q8NI35 1425-1530): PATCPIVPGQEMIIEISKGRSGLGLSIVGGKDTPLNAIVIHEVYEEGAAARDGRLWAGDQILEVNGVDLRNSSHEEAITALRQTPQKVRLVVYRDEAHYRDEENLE

| Binder | pKd |
| --- | --- |
| KSRPENGTVC [TMEM178B, H3BS89] | below the threshold |

The binders below were run against T3, SHANK1, Q9Y566 (assay: holdup assay). Details: plain residues with an end cap or a label only (N-terminal biotin on a linker: ado-ado).
Parameters: key: below the threshold = too weak to quantify, mostly under pKd 3.1 to 4

| Binder | pKd |
| --- | --- |
| KSRPENGTVC [TMEM178B, H3BS89] | below the threshold |

These binders were tested against DLG4_2, P78352 (assay: holdup assay). Details: plain residues with an end cap or a label only (N-terminal biotin on a linker: ado-ado).
Parameters: key: below the threshold = too weak to quantify, mostly under pKd 3.1 to 4

Sequence of DLG4_2, P78352 (P78352 155-259): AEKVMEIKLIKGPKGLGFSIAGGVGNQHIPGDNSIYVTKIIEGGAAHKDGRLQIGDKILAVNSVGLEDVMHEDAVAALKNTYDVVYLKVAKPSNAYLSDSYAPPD

| Binder | pKd |
| --- | --- |
| KSRPENGTVC [TMEM178B, H3BS89] | below the threshold |

These binders were tested against DLG4_3, P78352 (assay: holdup assay). Details: plain residues with an end cap or a label only (N-terminal biotin on a linker: ado-ado).
Parameters: key: below the threshold = too weak to quantify, mostly under pKd 3.1 to 4

Sequence of DLG4_3, P78352 (P78352 306-403): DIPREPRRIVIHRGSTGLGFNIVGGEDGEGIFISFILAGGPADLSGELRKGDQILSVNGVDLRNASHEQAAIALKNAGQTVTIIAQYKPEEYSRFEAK

| Binder | pKd |
| --- | --- |
| KSRPENGTVC [TMEM178B, H3BS89] | 3.5 |

The binders below were run against GRID2IP_1, A4D2P6 (assay: holdup assay). Details: plain residues with an end cap or a label only (N-terminal biotin on a linker: ado-ado).
Parameters: key: below the threshold = too weak to quantify, mostly under pKd 3.1 to 4

Sequence of GRID2IP_1, A4D2P6 (A4D2P6 1-87): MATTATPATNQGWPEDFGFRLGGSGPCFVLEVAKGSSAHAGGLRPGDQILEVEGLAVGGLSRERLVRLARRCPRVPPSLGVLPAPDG

| Binder | pKd |
| --- | --- |
| KSRPENGTVC [TMEM178B, H3BS89] | below the threshold |

What follows are binders tested against TJP1_3, Q07157 (assay: holdup assay). Details: plain residues with an end cap or a label only (N-terminal biotin on a linker: ado-ado).
Parameters: key: below the threshold = too weak to quantify, mostly under pKd 3.1 to 4

Sequence of TJP1_3, Q07157 (Q07157 416-512): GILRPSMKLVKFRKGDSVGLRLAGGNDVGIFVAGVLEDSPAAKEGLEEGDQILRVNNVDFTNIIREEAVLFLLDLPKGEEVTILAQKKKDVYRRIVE

| Binder | pKd |
| --- | --- |
| KSRPENGTVC [TMEM178B, H3BS89] | below the threshold |

These binders were tested against MAGI1_2, Q96QZ7 (assay: holdup assay). Details: plain residues with an end cap or a label only (N-terminal biotin on a linker: ado-ado).
Parameters: key: below the threshold = too weak to quantify, mostly under pKd 3.1 to 4

Sequence of MAGI1_2, Q96QZ7 (Q96QZ7 456-580): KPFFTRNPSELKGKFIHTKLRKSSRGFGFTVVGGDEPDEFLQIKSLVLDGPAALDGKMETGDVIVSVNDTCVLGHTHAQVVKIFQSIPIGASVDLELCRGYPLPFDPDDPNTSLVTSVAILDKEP

| Binder | pKd |
| --- | --- |
| KSRPENGTVC [TMEM178B, H3BS89] | below the threshold |

These binders were tested against GRID2IP_2, A4D2P6 (assay: holdup assay). Details: plain residues with an end cap or a label only (N-terminal biotin on a linker: ado-ado).
Parameters: key: below the threshold = too weak to quantify, mostly under pKd 3.1 to 4

Sequence of GRID2IP_2, A4D2P6 (A4D2P6 272-370): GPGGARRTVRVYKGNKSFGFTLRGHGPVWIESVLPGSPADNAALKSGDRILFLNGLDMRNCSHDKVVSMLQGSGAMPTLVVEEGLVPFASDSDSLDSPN

| Binder | pKd |
| --- | --- |
| KSRPENGTVC [TMEM178B, H3BS89] | 3.66 |

The binders below were run against FRMPD2_3, Q68DX3 (assay: holdup assay). Details: plain residues with an end cap or a label only (N-terminal biotin on a linker: ado-ado).
Parameters: key: below the threshold = too weak to quantify, mostly under pKd 3.1 to 4

Sequence of FRMPD2_3, Q68DX3 (Q68DX3 1073-1166): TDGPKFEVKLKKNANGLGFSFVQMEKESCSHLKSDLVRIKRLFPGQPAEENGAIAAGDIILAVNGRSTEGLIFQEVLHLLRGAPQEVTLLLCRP

| Binder | pKd |
| --- | --- |
| KSRPENGTVC [TMEM178B, H3BS89] | below the threshold |

Each binder was assayed against DLG5_1, Q8TDM6 (assay: holdup assay). Details: plain residues with an end cap or a label only (N-terminal biotin on a linker: ado-ado).
Parameters: key: below the threshold = too weak to quantify, mostly under pKd 3.1 to 4

Sequence of DLG5_1, Q8TDM6 (Q8TDM6 617-713): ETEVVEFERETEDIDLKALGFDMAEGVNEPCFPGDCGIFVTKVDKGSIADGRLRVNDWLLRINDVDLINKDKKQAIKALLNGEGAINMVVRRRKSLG

| Binder | pKd |
| --- | --- |
| KSRPENGTVC [TMEM178B, H3BS89] | below the threshold |

These binders were tested against T4, MPDZ_12, O75970 (assay: holdup assay). Details: plain residues with an end cap or a label only (N-terminal biotin on a linker: ado-ado).
Parameters: key: below the threshold = too weak to quantify, mostly under pKd 3.1 to 4

| Binder | pKd |
| --- | --- |
| KSRPENGTVC [TMEM178B, H3BS89] | below the threshold |

The binders below were run against T5, GRIP1_7, Q9Y3R0 (assay: holdup assay). Details: plain residues with an end cap or a label only (N-terminal biotin on a linker: ado-ado).
Parameters: key: below the threshold = too weak to quantify, mostly under pKd 3.1 to 4

| Binder | pKd |
| --- | --- |
| KSRPENGTVC [TMEM178B, H3BS89] | below the threshold |

What follows are binders tested against NHERF2_2, Q15599 (assay: holdup assay). Details: plain residues with an end cap or a label only (N-terminal biotin on a linker: ado-ado).
Parameters: key: below the threshold = too weak to quantify, mostly under pKd 3.1 to 4

Sequence of NHERF2_2, Q15599 (Q15599 142-238): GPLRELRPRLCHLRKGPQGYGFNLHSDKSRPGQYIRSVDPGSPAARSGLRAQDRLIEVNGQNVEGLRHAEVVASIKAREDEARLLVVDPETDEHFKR

| Binder | pKd |
| --- | --- |
| KSRPENGTVC [TMEM178B, H3BS89] | below the threshold |

What follows are binders tested against T6, GRIP1_3, Q9Y3R0 (assay: holdup assay). Details: plain residues with an end cap or a label only (N-terminal biotin on a linker: ado-ado).
Parameters: key: below the threshold = too weak to quantify, mostly under pKd 3.1 to 4

| Binder | pKd |
| --- | --- |
| KSRPENGTVC [TMEM178B, H3BS89] | below the threshold |

Each binder was assayed against T7, DFNB31_3, Q9P202 (assay: holdup assay). Details: plain residues with an end cap or a label only (N-terminal biotin on a linker: ado-ado).
Parameters: key: below the threshold = too weak to quantify, mostly under pKd 3.1 to 4

| Binder | pKd |
| --- | --- |
| KSRPENGTVC [TMEM178B, H3BS89] | 3.99 |

The binders below were run against T8, DFNB31_1, Q9P202 (assay: holdup assay). Details: plain residues with an end cap or a label only (N-terminal biotin on a linker: ado-ado).
Parameters: key: below the threshold = too weak to quantify, mostly under pKd 3.1 to 4

| Binder | pKd |
| --- | --- |
| KSRPENGTVC [TMEM178B, H3BS89] | below the threshold |

The binders below were run against T9, MPP6, Q9NZW5 (assay: holdup assay). Details: plain residues with an end cap or a label only (N-terminal biotin on a linker: ado-ado).
Parameters: key: below the threshold = too weak to quantify, mostly under pKd 3.1 to 4

| Binder | pKd |
| --- | --- |
| KSRPENGTVC [TMEM178B, H3BS89] | below the threshold |

These binders were tested against T10, SYNJ2BP, P57105 (assay: holdup assay). Details: plain residues with an end cap or a label only (N-terminal biotin on a linker: ado-ado).
Parameters: key: below the threshold = too weak to quantify, mostly under pKd 3.1 to 4

| Binder | pKd |
| --- | --- |
| KSRPENGTVC [TMEM178B, H3BS89] | 3.93 |

These binders were tested against MAGI1_1, Q96QZ7 (assay: holdup assay). Details: plain residues with an end cap or a label only (N-terminal biotin on a linker: ado-ado).
Parameters: key: below the threshold = too weak to quantify, mostly under pKd 3.1 to 4

Sequence of MAGI1_1, Q96QZ7 (Q96QZ7 1-106): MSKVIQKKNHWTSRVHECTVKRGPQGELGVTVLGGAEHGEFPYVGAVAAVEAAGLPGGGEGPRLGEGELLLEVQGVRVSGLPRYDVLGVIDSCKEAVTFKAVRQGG

| Binder | pKd |
| --- | --- |
| KSRPENGTVC [TMEM178B, H3BS89] | below the threshold |

What follows are binders tested against T11, APBA1_2, Q02410 (assay: holdup assay). Details: plain residues with an end cap or a label only (N-terminal biotin on a linker: ado-ado).
Parameters: key: below the threshold = too weak to quantify, mostly under pKd 3.1 to 4

| Binder | pKd |
| --- | --- |
| KSRPENGTVC [TMEM178B, H3BS89] | below the threshold |

What follows are binders tested against T12, PDZD7_3, Q9H5P4 (assay: holdup assay). Details: plain residues with an end cap or a label only (N-terminal biotin on a linker: ado-ado).
Parameters: key: below the threshold = too weak to quantify, mostly under pKd 3.1 to 4

| Binder | pKd |
| --- | --- |
| KSRPENGTVC [TMEM178B, H3BS89] | below the threshold |
